Tests used:
[1] = target: T1, SGR_2426r (SGR_2426 protein) (Streptomyces griseus, UniProt B1W1N0, E318G); assay: X-ray crystal structure, soaked crystal; type: binding; details: 500 mM Sop2 soak, about 2 h; subsites -1 and +1; mutant printed E316G once
T1 construct: full length (no signal peptide), C-terminal His6 tag kept, pET30a, E. coli BL21(DE3); monomer by PISA

[2] = substrate: C[C@H]1O[C@@H](Oc2ccc([N+](=O)[O-])cc2)[C@H](O)[C@@H](O)[C@H]1O; assay: p-nitrophenol release, biphasic fit; type: biochemical, Streptomyces griseus; details: pH 6.5, first (stronger) site of biphasic equation
Excerpt: p-nitrophenol release, biphasic fit on SGR_2426r (SGR_2426 protein)

purified protein [3] = substrate: O=[N+]([O-])c1ccc(O[C@@H]2O[C@H](CO)[C@@H](O)[C@H](O)[C@H]2O)cc1; assay: purified protein; details: pH 6.5
purified protein [4] = substrate: O=[N+]([O-])c1ccc(O[C@@H]2O[C@H](CO)[C@H](O)[C@H](O)[C@H]2O)cc1; assay: purified protein; details: pH 6.5

T1 sequence (B1W1N0 entry or part of it E318G): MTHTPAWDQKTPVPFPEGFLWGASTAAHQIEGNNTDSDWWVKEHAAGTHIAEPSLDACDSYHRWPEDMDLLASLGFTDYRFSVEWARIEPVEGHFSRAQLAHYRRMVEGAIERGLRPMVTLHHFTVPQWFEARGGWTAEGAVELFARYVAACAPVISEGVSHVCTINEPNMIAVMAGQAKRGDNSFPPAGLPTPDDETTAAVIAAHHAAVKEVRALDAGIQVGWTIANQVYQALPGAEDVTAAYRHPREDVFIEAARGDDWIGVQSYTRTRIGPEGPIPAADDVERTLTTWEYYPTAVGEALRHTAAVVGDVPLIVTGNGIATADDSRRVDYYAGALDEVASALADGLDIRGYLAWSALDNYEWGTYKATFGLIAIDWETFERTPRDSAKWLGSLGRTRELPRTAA

| Molecule | X-ray crystal structure, soaked crystal [1] | Km [2] [µM] | Vmax [2] [µmol/min/mg] | Vmax/Km [2] [µL/min/mg] | Km (purified protein [3]) [µM] | Vmax (purified protein [3]) [µmol/min/mg] | Vmax/Km (purified protein [3]) [µL/min/mg] | Km (purified protein [4]) [µM] | Vmax (purified protein [4]) [µmol/min/mg] | Vmax/Km (purified protein [4]) [µL/min/mg] |
| --- | --- | --- | --- | --- | --- | --- | --- | --- | --- | --- |
| OC[C@H]1O[C@@H](O[C@H]2C(O)O[C@H](CO)[C@@H](O)[C@@H]2O)[C@H](O)[C@@H](O)[C@@H]1O (stereo partly shown) [Sop2, sophorose] | crystals of the E318G mutant prepared without Sop2 were soaked | – | – | – | – | – | – | – | – | – |
| SGR_2426r (SGR_2426 protein) (Streptomyces griseus subsp. griseus NBRC 13350) (protein, full length (no signal peptide), C-terminal His6 tag kept, pET30a, E. coli BL21(DE3); monomer by PISA) MTHTPAWDQKTPVPFPEGFLWGASTAAHQIEGNNTDSDWWVKEHAAGTHIAEPSLDACDSYHRWPEDMDLLASLGFTDYRFSVEWARIEPVEGHFSRAQLAHYRRMVEGAIERGLRPMVTLHHFTVPQWFEARGGWTAEGAVELFARYVAACAPVISEGVSHVCTINEPNMIAVMAGQAKRGDNSFPPAGLPTPDDETTAAVIAAHHAAVKEVRALDAGIQVGWTIANQVYQALPGAEDVTAAYRHPREDVFIEAARGDDWIGVQSYTRTRIGPEGPIPAADDVERTLTTWEYYPTAVGEALRHTAAVVGDVPLIVTENGIATADDSRRVDYYAGALDEVASALADGLDIRGYLAWSALDNYEWGTYKATFGLIAIDWETFERTPRDSAKWLGSLGRTRELPRTAA | – | 160 ± 100 | 4.6 | 29000 | 1000 ± 100 | 28 | 28000 | 5800 ± 300 | 13 | 2300 |
